Three substances from patent publication EP1942187B1 can be followed below.

One test has as its target human zcytor19 (human). The experiment in a line: cell-based or functional assay.
The target in another test is IL10Rb (CRF2-4) (human) (UniProt Q08334). The experiment in a line: cell-based or functional assay.
Sequence of IL10Rb (CRF2-4) (human) (Q08334 20-325 limits assumed, form in doubt): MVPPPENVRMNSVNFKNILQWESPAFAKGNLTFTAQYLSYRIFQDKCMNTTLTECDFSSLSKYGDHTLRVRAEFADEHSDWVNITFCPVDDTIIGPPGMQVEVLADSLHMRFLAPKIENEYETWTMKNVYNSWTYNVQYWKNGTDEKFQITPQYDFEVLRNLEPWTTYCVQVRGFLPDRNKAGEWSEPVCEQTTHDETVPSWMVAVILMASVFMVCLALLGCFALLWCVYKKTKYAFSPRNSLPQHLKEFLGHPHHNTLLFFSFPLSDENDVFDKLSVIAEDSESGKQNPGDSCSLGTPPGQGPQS

As to “huIL10 (from UniProt P22301 19-178) (ligand)”, the ISRE-luciferase fold induction; 293 cells transfected with ISRE-Luc./Zcytor19; HuIL 10 100ng/ml (fold induction) with human zcytor19 (human) was 0.5.

For the substance “zcyto10 (from UniProt Q9NYY1 25-176) (ligand)”, the ISRE-luciferase fold induction; 293 cells transfected with ISRE-Luc./Zcytor19; Zcyto10 125ng/ml (fold induction) with human zcytor19 (human) came to 1.

On to zcyto20-CEE (ligand), for which, in the test with IL10Rb (CRF2-4) (human), the Optical Density (570nm), MTT, EMCV-infected HuzcytoR19-overexpressing 293 cells; Zcyto20-CEE 0.5 ng/ml; Anti-IL10Rb 5 ug/ml is 0.95 OD 570nm; the Optical Density (570nm), MTT, EMCV-infected HuzcytoR19-overexpressing 293 cells; Zcyto20-CEE 0.5 ng/ml; Anti-LeptinR 5 ug/ml (control antibody) amounted to 0.24 OD 570nm; the Optical Density (570nm), MTT, EMCV-infected wild-type 293 cells; Zcyto20-CEE 200 ng/ml; Anti-IL10Rb 5 ug/ml stood at 0.94 OD 570nm; the Optical Density (570nm), MTT, EMCV-infected wild-type 293 cells; Zcyto20-CEE 200 ng/ml; Anti-LeptinR 5 ug/ml (control antibody) was determined as 0.88 OD 570nm.
